Measurements taken from patent publication US11897966 (UTC THERAPEUTICS SHANGHAI, dated 2024).

target: T1, mesothelin-Fc recombinant protein (human, UniProt Q13421 296-580, limits assumed); test: FACS of T cells expressing the scFv CAR, stained with Mesothelin-Fc + PE-anti-IgG-Fc; Mock T cells of the same block: 0.63
T1 construct: also called mesothelin-Fc protein; human Mesothelin-Fc; not shown: Fc part
T1 sequence (Q13421 other isoform, or with tags, fused parts or gaps limits assumed): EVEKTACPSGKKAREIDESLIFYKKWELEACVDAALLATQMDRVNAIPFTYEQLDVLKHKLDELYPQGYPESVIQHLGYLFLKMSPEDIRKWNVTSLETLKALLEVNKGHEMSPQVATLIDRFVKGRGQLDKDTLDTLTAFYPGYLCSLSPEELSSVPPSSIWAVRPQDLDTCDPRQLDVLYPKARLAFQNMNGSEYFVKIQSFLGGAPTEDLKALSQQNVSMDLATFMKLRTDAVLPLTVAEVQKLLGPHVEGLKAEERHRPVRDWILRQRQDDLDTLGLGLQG

Row | number in the Mesothelin-Fc positive gate (percent of cells, unit not given) | Binder
1 | 80.8 | anti-mesothelin scFv-M8 (scFv) DIQLTQSPSSLSASVGDRVTITCRASQSISSSLNWYQQKPGKAPKLLIYAASSLQSGVPSRFSGSGSGTDFTLTISSLQPEDFATYSCQQSYSTPLTFGGGTKVEIKGGGGSGGGGSGGGGSQVHLVESGGGVVQPGRSLRVSCAASGFTFSGYAMYWVRQAPGKGLEYVSAITTNGGSTNYADSVKGRFTISRDNSKNTLYLQMSSLRAGDTAVYYCARGAPGYRGYYMDVWGKGTTVTVSS
2 | 71.1 | anti-mesothelin scFv-M13 (scFv) AIRMTQSPSSLSASVGDRVTITCRASQGISNSLAWYQQKPGKAPKLLLYAASRLESGVPSRFSGSGSGTDYTLTISSLQPEDFATYYCQQYYSTPFTFGPGTKLEIKGGGGSGGGGSGGGGSQVQLVQSGAEVKKPGSSVKVSCKTSADTFSANTINWVRQAPGHGLEWMGRIIPSLNIRDYAQEFQGRVTFTADESTNTVYMQLTSLRSEDTAVYYCARDPGSTWSPNQFFPHWGQGTLVTVSS
3 | 9.53 | M18 (scFv) chain 1: QVQLVQSGGGLVQPGGSLRLSCAASGFTFSSYWMHWVRQAPGKGLVWVSRINSDGSSTSYADSVKGRFTISRDNAKNTLYLQMNSLRAEDTAVYYCVRTGWVGSYYYYMDVWGKGTTVTVSS chain 2: EIVLTQSPGTLSLSPGERATLSCRASQSVSSNYLAWYQQKPGQPPRLLIYDVSTRATGIPARFSGGGSGTDFTLTISSLEPEDFAVYYCQQRSNWPPWTFGQGTKVEIK
4 | 83.4 | anti-mesothelin scFv-M6 (scFv) EIVMTQSPATLSLSPGERATLSCRASQSIGNSLAWYQQKPGQAPRLLIYDVSNRATGIPARFSGSGSGTDFTLTISSLEPEDFAVYYCQHRYSWPLTFGGGTKVEIKGGGGSGGGGSGGGGSQVQLVQSGGGLVKPGGSLRLSCAASGFTFSDYYMSWIRQAPGKGLEWVSYISSSGSTIYYADSVKGRFTISRDNAKNSLYLQMNSLRAEDTAVYYCARDGYRTHNWFDPWGQGTLVTVSS
5 | 48.8 | anti-mesothelin scFv-M15 (scFv) DIQLTQSPSSLSASIGDRVTITCRASQGVNSALAWYQQKPGKPPNLLIYDASSLESGVPSRFSGSGSGRDFTLTISSLQPEDFATYYCQQFSSYPLTFGGGTKVDIKGGGGSGGGGSGGGGSQVQLVQSGAEVKKPGASVKVSCKASGYTFTSYYMHWVRQAPGQGLEWMGIINPSGGSTSYAQKFQGRVTMTRDTSTSTVYMELSSLRSEDTAVYYCARAQRGGSVYFDYWGQGTLVTVSS
6 | 36.3 | anti-mesothelin scFv-M7 (scFv) DIRLTQSPSSLSASLGDRVTITCRASQAISSALAWYQQKPGKAPRLLIYDASTLESGVPSRFSGSGSGTDFTLTISSLQPEDFATYYCQQADSFPLTFGGGTKLEIKGGGGSGGGGSGGGGSQVQLVQSGAEVKKSGESLKISCKGSGYGFGAYWIAWVRQMPGKGLEWMGIIYPGDSRVIYSPYFQGQVTISADKSISTAYLQWSSLKASDTAMYYCARFGGPKFATNWFDIWGQGTTVTVSS

target: T1, mesothelin-Fc recombinant protein; test: FACS of T cells expressing the scFv CAR, stained with Mesothelin-Fc + PE-anti-IgG-Fc; Mock T cells of the same block: 0.97

Row | number in the Mesothelin-Fc positive gate (percent of cells, unit not given) | Binder
7 | 67.9 | anti-mesothelin scFv-M31 (scFv) QSALTQPPSASGSPGQSVTISCTGTSSDIGGYNSVSWYQQHPGKAPKLIIYGVSRRPSGVPDRFSGSKSANTASLTVSGLQAVDEADYYCSSYGGSNNLLFGGGTKLTVLGGGGSGGGGSGGGGSEVHLVESGGGLAQPGGSLRLSCAASGFSFSSSWMAWVRQAPGKGLEWVANIKQDGSSQYYVDSVKGRFTISRDNAKNSLSLQMNSLRAEDTAVYYCARDIWYSIDYWGQGTLVTVSS
8 | 74.2 | anti-mesothelin scFv-M37 (scFv) DIVMTQTPSSLSASVGDRVTITCRASQGISNYLAWFQQKPGKAPKPLIYAASSLQSGVPSKFSGSGSGTDFTLTISNLQPEDFATYICQQYSSYPITFGQGTRLEIKGGGGSGGGGSGGGGSQLQLQESGPGLVKPSETLSLTCAVSGGSISPYYWTWIRQSPGKAMEWMGYIHYSGRTNYNPSLESRATFSVDTSKNQISLKLNSVTAADTAVYYCTKVGDPGLFDYWGPGTLVTVSS
9 | 80 | anti-mesothelin scFv-M22 (scFv) QSALTQPASVSGSPGQSITLSCTGTRRDIGGYEYVSWYQQHPGKAPKLLIFSVNNRPSGVSHRFSGSKSGNTASLTISGLQAEDEAAYFCSSYSSRDTLVLFGGGTKLTVLGGGGSGGGGSGGGGSQVQLVQSGAEVKKPGSSVKVSCKASGGTFSSYAISWVRQAPGQGLEWMGGIIPIFGTANYAQKFQGRVTITADESTSTAYMELSSLRSEDTAVYYCASGRSGSYGLYWGQGTLVTVSS
10 | 75.6 | anti-mesothelin scFv-M20 (scFv) AIQMTQSPSSLSASVGNRVTITCRASQGISSAVAWYQQKPGKPPKLLISYASSLESGVPSRFSGSGSGTDFSLTISSLQPEDFATYFCQQFNSYPLTFGGGTKVEIKGGGGSGGGGSGGGGSQVQLVQSGAEVRKPGESLKISCKGSGYSFRDSWIAWVRQMPGQGLEWMGIIFPGDSNPIYSPSFQGQVTISADTSISTTFLQWRSLKASDSAIYYCARHAAWGAGWFDPWGQGTLVTVSS
11 | 76.3 | anti-mesothelin scFv-M27 (scFv) EIVLTQSPGTLSLSPGERATLSCRASQPIVASHLAWYQHKPGQAPRLLIYGASTRAAGIPDRFSGSGSGTDFTLTISRLEPEDFAVYFCQQYGISPFTFGPGTKVDIKGGGGSGGGGSGGGGSQVQLVQSGAEVKKPGESLKISCQGSGYSFTDYWIGWVRQAPGQGLEWMGWITPNNGNTNYAPKFQGRVTLTTDTSTSTAYMELRSLTSDDTAVYFCARRGRNSSGYLYYYSMDVWGQGTTVTVSS
12 | 84.1 | anti-mesothelin scFv-M32 (scFv) DIRMTQSPSSLSASVGDRVTVTCQASEDINNSLNWYQQKPGKAPQLLIYDASDLETGVPSRFSGRGSGRDFTLTISSLQPEDFATYYCQQLNSYPLTFGGGTKLEIKGGGGSGGGGSGGGGSQVQLVQSGAEVKKPGASVKVSCKASGFTFIGYYLHWVRQAPGQGLEWMGIINPSGGRTSMAQKFQGRVSMTTDTSTGTVYLDLGRLGSDDTAVYYCARADNWNAGSMDVWGNGTTVTVSS
13 | 82.8 | anti-mesothelin scFv-M28 (scFv) QSALTQPPSASGSPGQSVTISCSGTSSDVGGYNFVSWYQHHPGKAPKLMIYEVSKRPSGVPDRFSGSKSGNTASLTVSGLQAEDEADYYCSSYAGRNNPYLFGTGTKLTVLGGGGSGGGGSGGGGSQLQLQESGAEVKKPGSSVKVSCKASGGTFSSYAISWVRQAPGQGLEWMGGIIPIFGTANYAQKFQGRVTITADESTSTAYMELSSLRSEDTAVYYCARDLGGYSYGHGLDYWGQGTLVTVSS
14 | 93.6 | anti-mesothelin scFv-M24 (scFv) QPVLTQPPSASGTPGQRVTISCSGSSSNIGSNYVYWYQQFPGTAPKLLIYMNNQRPSGVPDRFSGSKSGTSASLAISGLRSEDEADYYCAARDDSLSGYVTFGGGTKLTVLGGGGSGGGGSGGGGSEVHLVESGGGLVQPGGSLRLSCAASGFTFSSYAMSWVRQAPGKGLEWVSAISGSGGSTYYADSVKGRFTISRDNSKNTLYLQMNSLKTEDTAVYYCTRGVATFDYWGQGTLVTVSS
